Experimental data taken from US20230226096A1 (Orna Therapeutics, Inc., priority 2020, published 2023).

What follows are molecules tested on HEK293 cells. Settings: luminescence from secreted Gluc in supernatant 24 hours after transfection of HEK293 cells; circular RNA encoding Gluc with the named IRES (UTR truncated to 675 nt).
Format: cell-based, human

| Molecule | Expression |
| --- | --- |
| Beihai Conger Picornavirus (nucleic acid) DNA: GGGACAACCCCACAGCTGGTACAACCATTGTGGGTTGGTCTCCACCCTTTTTCAACCGTGGCAACTTCGGTTAAAGTTGCAAATCCCCCCTCTCCCTATTCCACCTCCCTTACTTTCACTCCCCATATATGGTCCCAGATTTTATTCTACCTCTTTATATTTTTATTTAGTACAGTGGTGGTGAATTACTCCCAGCATAAACTTTGCTGGATCAGTGTTCATCAAGCATACTAATTACTAATGTACTGAGCTATACTATTATCTGGCATCTCACCTGGATAACCGGTGTGACCATATTTCCTAGGTTGCCTCCCTATGTATTTTGTAGCACCTGTGCATCTGCACGTTGGGGCGACAAATTGTAGGTTTCCTGGCACGGGTAAGAATTGTGGAAAGCTAGTATGCAGTTAATGCAAGGGCGCGTTTTTCGCTACCCCGACACTGCTAAAGTTTTTGGGAGGGGTCCCTTAAACATTTCTAGTATTGAGTGATAGCTTTGCGGCAGGTCACCACAACCTTACTATAAATAAACCTGTTGAATCTCAC | 1.15E+06 |
| Rabovirus A NYC-B10 (nucleic acid, Rabovirus A) DNA: CCGACCCCACTGGTCGAAGGCCACTTGGCAATAAGACTGGTGGAACAAGGTCGCCTGTAGTTGATTGGAACCTTCTTTCTAATGACTTATGTCAGCGGTGCTACTCACACCGTAACTCTCCTACCCTATCCCCACGCTTGTGGAACTAGGAGGGGATGAGTGATTCAAGTAAGTACTGTCAGAATGGTGAAAATAATCTGATTCTGAAACGCTATGGATCCATCGAAAGATGGGGCTACACGCCTGCGGAACAACACATGGTAACATGTGCCCCAGGGGCCGAAAGCCACGGTGATAGGATCACCCGTGTAGTTTGAGATCATATCAATGTTCATAGTCTAGTAAGATGATTTGAAATCTAACTGGTCTGATGGCTAACTGCTTGTCTTATTGCGGCCTAAGGATGTCCTGCAGGTACCTTTAGAGAACCTTAAGAGACTATTGATCTGAGCAGGAGCCAAGGTGGTCTTTCCCAGCCTTGGTTAAAAAGCGTCTAAGCCGCGGCAGGGGGCGGGAGGCCCCCTTTCCTCCCAAACTATAATATAGATTGT | 1.24E+06 |
| Porcine Sapelovirus A2 (nucleic acid, listed as Sapelovirus sp.) DNA: TTGAAATGGGTGTGGGGTACATGCGTATTACGGTACGCATATATTCCACACTCATTTCCCCCCCTCCACCCTTAAGGTGGTTGTATCCCCATACCTTACCCTCCCTTCTAAAACAGATGGACAAATGGATTTGAACTTATGGCAAGTGAATATGGTATGACTTTGGATACACTTTAACGGCAGTAGCGTGGCGAGCTATGGAAAAATCGCAATTGTCGATAGCCATGTTAGTGACGCGCTTCGGCGTGCTCCTTTGGTGATTCGGCGACTGGTTACAGGAGAGTAGGCAGTGAGCTATGGGCAAACCTCTACAGTATTACTTAGAGGGAATGTGCAATTGAGACTTGACGAGCGTCTCTTAGAGATGTGGCGCATGCTCTTGGCATTACCATAGTGAGCTTCCAGGTTGGGAAACCTGGACTGGGCCTATACTACCTGATAGGGTCGCGGCTGGCCGCCTGTAACTAGTATAGTCAGTTGAAACCCCCC | 4.34E+06 |
| Parabovirus C (nucleic acid, Parabovirus C) DNA: GATGTATCCCCATCCCCCAGTGTGTATGCCATACTGCATAGCTCGCCTATGCCCTATGGATTCACAACCCTTTCATATACCCTCCCTACCCAACCCCGTAACCACATGCTTTACTCCGCTTGGGGTTTTGCGGCCCCATGTTGTGACGAAATGGCTACGCAATCAATGCGGCTAATGGGGCCTGCCGCTTTTAAGTGGCCCCAGTTAGAAGTTTATGCACACCCGCCCATTAGGAGGCCACCAGCCAGGTGGTCAGAGGGCAAGCACTTCTGTTTCCCCGGTGAAGTTTGATAAGCTGTGCCCACGGCTGAAGCAGACAGATCCGTTACCCGCCTCACTACTACGAGACGGCTAGTAGTGTGTAATATCCGAATTTCATTGATCCGGGTGTTCCCCCCACCCAGAAACGTGTGATGAGGAGCGGCACCCCTCCTATGGCAACATAGGGCCTCTCCTGCGCTGGCACACGGGCTCTATGAGCATGAAATCAGGAGAAAGTCACACGAAGACCTTATTGTGCTAGTGTTGATTCCTCCGCCCCCCTGAATGCGGCTAATCCCAACTCCGGAGCGCCCGCTGGCAAACCCGCCAGAAGAGCGTCGTAATGCGTAAGTCTGGAGCGGAACCGACTACTTTGGGTGTGGCGTGTTTCCTTTATTTCCTTTGTATTTGTAT | 1.83E+07 |
| Rabovirus C (nucleic acid, Rabovirus C) DNA: CCGGGTATAACCCGGAGTTTTGGGGCAGGTCCAAGCCCCACATAGGAACATACGATCCACGGATCGTGTGTTCTTTTATGCTTTCTAACCTTACCCTTTGTAACCATTACGCTTTACGCCGCATGGTGTTTGGCGGCACCATGACGTGGACAAGAGGTTACGCCATTACGATATGTACCCTCCCCTTTTGGGGAGAGACCGACCAATTATGGTACAGTATCCAACTGTATTGTGGTCAAGTACTTCTGTTTCCCCGGTGATGCGGGATAGGCTGTACCCACGGCCAAAACCTGCTGATCCGTTACCCGACTCACATCTACGAGGAGGCTAGTAAAAGGCATGAAGTTCAAGAGTATGATCCAACCAGATCCCCACTGGTAAACTAGTGATGAGGGTTCCCGTTCCGAACATGGCAACATGTGGGTTCCCTGCGTTGGCACTAGGCCCCTTCCGAGGGGTGCTCTGAAGATGGATTGTTGATGAAGACCAATTTGTGCATGTGTTTATCCTCCGGCCCTCTGA | 2.49E+06 |
| Simian Sapelovirus 2 (nucleic acid, listed as Sapelovirus sp.) DNA: TTTTAACTTGTTATGACATTCAAGGAAAAAATGTCTTTTTCATTATGGGACTGACCTGTTTATGAACATGAGCAGCGGCACTGCTCCACGGGCTATCCGTGTAAGAAATATTGATTATTCTTATGGATCATGATTTCAGGGTTGGCCGCCCAGTCTAAAAGGCAATTGTGGTAAGCTATGTAAGTAGTTGGCTGTTGAAAGGAGCCAAGTACATCCTAGGTCTACGCTGTGCGGGCCGAAGTAAGACTTGGAACAACTCTGAGTAGGCAGTTTTTCTCTTTAGCCCAACACGACCGCATACTGAAGAGCTAGAGGCACTTTGGGGCAAAGGTAAAAGCATTGCTTAGACCGAATGTTCAATGAGACCTTGACGAGTGCTGTCACAGTGTCCCCTGATGGCAGTATGGCGCATGCTCTTGGCATTACCCATATGTGTATCTATAGGGGGGGGGCCCCCTATACTTAGTCTAGTGCTACCTGACAGGGCCGCGGCTGGTCGTCGGTGTGTGGTATAACCAGTAGTAATCCCCCATGGATTGCTTTAACTCCCCCTCCTCCCTCAACAAAACTTTCTCTAAG | 4.24E+07 |
| Parabovirus B (nucleic acid, Parabovirus B) DNA: AACCCATAATCCATTGTCCATCAATGTTTTATGGGGGGGACCCTTTCTCCCCTCCCCCTCCAAATACCTTTTACCCCTCTGTAACCAAGAGTGTGCAAAATCTATTTACTAGCCCAGAATTGCGGCTTCTGGGGAGGTTTATTCCTCATGCCTAACAAGATGTTACGCAAACTCCGGGCTACGGCCCTGGGCTTTTGCCCTAAAGATTTAGAAGTTTACACTATCGTCCAACAGGAGGACAACAAACCAGTTGTTCTAAGGACAAGCACTTCTGTTTCCCCGGTGAGACTGGATAGACTGTACCCACGGTTGAAACTGGTTGATCCGTTACCCGACTCACTACTTCGAGAAGATTAGTAGGAAACTGTGAAACTGATTCCATTGATCCGGATACTTTCCCCGTATCCAGAAACTACTGATGAGGGTTGACTTCCCGACTACGGCGACGTAGTGTCATCCCTGCGCTGGCAGTAGGCCTCTTTGAGGATGGAAGATGTGGATCGGTAACCGAAGGTCCTATTGAGCTAGTGTTTATACCTCCGGCCTCCTGAATGCGGCTAATCCTAACCCATGATCTAGTGCTCACAAACCAGTGAGTAGCTAGTCGTAACGCGTAAGTCGTGGGCGGAACCGACTACTTTGGAGTGACCGTGTTTCCTATTTTACTTTTGTTTG | 7.85E+06 |
| Cadicivirus B (nucleic acid, Cadicivirus B) DNA: CACCAACCCTTGACCTGTAATGTCAGTGGACAGAGTGCTCCTCTGTTCCCGGTTACCGTGTTCCAGGACACGATTGTAATCCTGCGCCTCACCAGCGCTGCGTGCACGTCTGCATAAGGAAACGTGCCTTCCCCATGTCTCTATCAATTCTTTGGTGAGTGACCGCCCTAGTTGCTCATCCTATGGGATTCTTCTCTCATGGGTTCTTTGTGGCATGCGAATGTCACCTTAATTGGAGGTCTTTAATTAGATATCCTTTCTTCATCTTTGATATGAGTGTCGGAATTTGATTCCTAGTCTCTGCAAAACAACCCCACTTGATGAATTCAACTTTTCAACCGCACAAACATAATCAGGTTTTTAAATTGAATGTTTCTAAATTCTAAATTTAGTTTATTTAAGTAGTTTGCCATCTTGACTCGATGTAAAATTGTCATACAAGTCTTCTTTTCTTTTCTTTACACTTTGAAGTTTGCACTTAGCAGTCGTTCTGCACAGCTTTCGAGTTTTGTTTGATCGACATCGCAACTTCCACCCACCTCTCTTTTTCTAGTGTTGAATGCGGCTAATCCTAACCCGAGAGCAATAAACCCAGGTTTATTGTCGTAACGCGCAAGTCTTGGACGGAACCGACTATACACACACCTCTTTACCCTTTAGTACACCCTTGGTACG | 2.10E+05 |
| Simian Sapelovirus 1 (nucleic acid, listed as Sapelovirus sp.) DNA: CCAAGGATCTGTTGCATAGGCGTTGTATCCCCTAACCTTTTACCTACCCATCCCAATAGGACTGGTATTTCGGTTTTGATTGAGTAATGGATACTGATTCTATACCTGTTACCCATTCAGGGGAAAAATGGAGTTTCTTTCATGGATCTGACTTGATATGACCAAGAGTCAACACTTTGCGTGTTGGCCGTATGGAATGCTTTAAGGTTTATTCTTTGGATTATGACTTCAGGGTTGGCCGCCCAGGATAAAAGGCAATTGTGGTAAGTGATGTTAGTCATTGGTGGTTGAAACCTGCCTAAGACGTCCTAGGTCTACGCTGTGCGGGCCGAAGTAAGCTTAGGAATAACAGGGAGTATGCCATTTTCTGCTTTCACCCAACACGACCGTACACGAAAGAGCTAGAGGCACTTTGGGGCAAAGGGAAAAGCTTTGCTTAGCCCGAATGTTCATTTGAGTCCTTGACGAATGCGTCCCGTCTGTCCCGACGGTGAGGCGTATGGCGCATGCTCATGGCATTACCCAATGGTGTATCTGTGAGGGGGGGGCTCCTCACACTTAGTCTAGTGCTACCTGACAGGGCCGCGGCTGGTCGTTTGTGTATGGTATAACCAGTAGTAATCCCCCATGGATTGCTTTAACTTCCCCTCCTCCCTTACCAAGACATTCTCTAAG | 6.55E+07 |
